The test system of the data set is N[C@@H](CCC(=O)Nc1ccc([N+](=O)[O-])cc1)C(=O)O. The data set is described as follows: purified protein. As to conditions: apparent constant; hydrolysis.

Consider “HpGT (Helicobacter pylori gamma-glutamyltranspeptidase) (Helicobacter pylori 26695)”, for which the Michaelis constant (Km) came out at 22.1 ± 1.4 µM and the Vmax is 5.18 µmol/min/mg.

The record behind these values is article PMC2668148.
